# Results from US20180016327A1 (Chugai, published 2018).
# Molecular target: T1, human C5 (human, UniProt P01031 19-673; P01031 678-1676, Beta and alpha chains are disulfide-linked and the protein is glycosylated.)
# T1 construct: Either in-house recombinant C5 or plasma derived C5 (CALBIOCHEM) was used; also called recombinant human C5; plasma derived human C5
# Experiment: Biacore, captured antibody, pH 7.4, 37 C;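 further: biacore binding response of anti-C5 antibody light chain variants captured on chip with human C5 injected, ACES running buffer containing 1.2 mM CaCl₂, parent light chain antibody set to 100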
row,% binding (parent = 100),Binder
1,17.5%,"CFP0021 21L 32N (antibody, V domains shown) VH: QVQLVESGGGLVQPGGSLRLSCAASGFTFSDHYMDWVRQAPGKGLEWVGRTRNKANSYTTEYAASVKGRFTISRDDSKNSLYLQMNSLKTEDTAVYYCARTGMMYWGIFDVWGQGTLVTVSS VL: DIQMTQSPSSLSASVGDRVTITCRASQSIEDNLAWYQQKPGKAPKLLIYHASTLQSGVPSRFSGSGSGTDFTLTISSLQPEDFATYYCQQHDSYPLTFGQGTKVEIK"
2,75.7%,"CFP0021 21L 53H (antibody, V domains shown) VH: QVQLVESGGGLVQPGGSLRLSCAASGFTFSDHYMDWVRQAPGKGLEWVGRTRNKANSYTTEYAASVKGRFTISRDDSKNSLYLQMNSLKTEDTAVYYCARTGMMYWGIFDVWGQGTLVTVSS VL: DIQMTQSPSSLSASVGDRVTITCRASQSIEDDLAWYQQKPGKAPKLLIYHASHLQSGVPSRFSGSGSGTDFTLTISSLQPEDFATYYCQQHDSYPLTFGQGTKVEIK"
3,61.1%,"CFP0021 21L 50Q (antibody, V domains shown) VH: QVQLVESGGGLVQPGGSLRLSCAASGFTFSDHYMDWVRQAPGKGLEWVGRTRNKANSYTTEYAASVKGRFTISRDDSKNSLYLQMNSLKTEDTAVYYCARTGMMYWGIFDVWGQGTLVTVSS VL: DIQMTQSPSSLSASVGDRVTITCRASQSIEDDLAWYQQKPGKAPKLLIYQASTLQSGVPSRFSGSGSGTDFTLTISSLQPEDFATYYCQQHDSYPLTFGQGTKVEIK"
4,37.9%,"CFP0021 21L 93G (antibody, V domains shown) VH: QVQLVESGGGLVQPGGSLRLSCAASGFTFSDHYMDWVRQAPGKGLEWVGRTRNKANSYTTEYAASVKGRFTISRDDSKNSLYLQMNSLKTEDTAVYYCARTGMMYWGIFDVWGQGTLVTVSS VL: DIQMTQSPSSLSASVGDRVTITCRASQSIEDDLAWYQQKPGKAPKLLIYHASTLQSGVPSRFSGSGSGTDFTLTISSLQPEDFATYYCQQHDGYPLTFGQGTKVEIK"
5,38.8%,"CFP0021 21L 50T (antibody, V domains shown) VH: QVQLVESGGGLVQPGGSLRLSCAASGFTFSDHYMDWVRQAPGKGLEWVGRTRNKANSYTTEYAASVKGRFTISRDDSKNSLYLQMNSLKTEDTAVYYCARTGMMYWGIFDVWGQGTLVTVSS VL: DIQMTQSPSSLSASVGDRVTITCRASQSIEDDLAWYQQKPGKAPKLLIYTASTLQSGVPSRFSGSGSGTDFTLTISSLQPEDFATYYCQQHDSYPLTFGQGTKVEIK"
6,44%,"CFP0021 21L 50E (antibody, V domains shown) VH: QVQLVESGGGLVQPGGSLRLSCAASGFTFSDHYMDWVRQAPGKGLEWVGRTRNKANSYTTEYAASVKGRFTISRDDSKNSLYLQMNSLKTEDTAVYYCARTGMMYWGIFDVWGQGTLVTVSS VL: DIQMTQSPSSLSASVGDRVTITCRASQSIEDDLAWYQQKPGKAPKLLIYEASTLQSGVPSRFSGSGSGTDFTLTISSLQPEDFATYYCQQHDSYPLTFGQGTKVEIK"
7,14.4%,"CFP0021 21L 34N (antibody, V domains shown) VH: QVQLVESGGGLVQPGGSLRLSCAASGFTFSDHYMDWVRQAPGKGLEWVGRTRNKANSYTTEYAASVKGRFTISRDDSKNSLYLQMNSLKTEDTAVYYCARTGMMYWGIFDVWGQGTLVTVSS VL: DIQMTQSPSSLSASVGDRVTITCRASQSIEDDLNWYQQKPGKAPKLLIYHASTLQSGVPSRFSGSGSGTDFTLTISSLQPEDFATYYCQQHDSYPLTFGQGTKVEIK"
8,1.5%,"CFP0021 21L 91R (antibody, V domains shown) VH: QVQLVESGGGLVQPGGSLRLSCAASGFTFSDHYMDWVRQAPGKGLEWVGRTRNKANSYTTEYAASVKGRFTISRDDSKNSLYLQMNSLKTEDTAVYYCARTGMMYWGIFDVWGQGTLVTVSS VL: DIQMTQSPSSLSASVGDRVTITCRASQSIEDDLAWYQQKPGKAPKLLIYHASTLQSGVPSRFSGSGSGTDFTLTISSLQPEDFATYYCQQRDSYPLTFGQGTKVEIK"
9,74.9%,"CFP0021 21L 50Y (antibody, V domains shown) VH: QVQLVESGGGLVQPGGSLRLSCAASGFTFSDHYMDWVRQAPGKGLEWVGRTRNKANSYTTEYAASVKGRFTISRDDSKNSLYLQMNSLKTEDTAVYYCARTGMMYWGIFDVWGQGTLVTVSS VL: DIQMTQSPSSLSASVGDRVTITCRASQSIEDDLAWYQQKPGKAPKLLIYYASTLQSGVPSRFSGSGSGTDFTLTISSLQPEDFATYYCQQHDSYPLTFGQGTKVEIK"
10,17.8%,"CFP0021 21L 91S (antibody, V domains shown) VH: QVQLVESGGGLVQPGGSLRLSCAASGFTFSDHYMDWVRQAPGKGLEWVGRTRNKANSYTTEYAASVKGRFTISRDDSKNSLYLQMNSLKTEDTAVYYCARTGMMYWGIFDVWGQGTLVTVSS VL: DIQMTQSPSSLSASVGDRVTITCRASQSIEDDLAWYQQKPGKAPKLLIYHASTLQSGVPSRFSGSGSGTDFTLTISSLQPEDFATYYCQQSDSYPLTFGQGTKVEIK"
11,28.5%,"CFP0021 21L 93N (antibody, V domains shown) VH: QVQLVESGGGLVQPGGSLRLSCAASGFTFSDHYMDWVRQAPGKGLEWVGRTRNKANSYTTEYAASVKGRFTISRDDSKNSLYLQMNSLKTEDTAVYYCARTGMMYWGIFDVWGQGTLVTVSS VL: DIQMTQSPSSLSASVGDRVTITCRASQSIEDDLAWYQQKPGKAPKLLIYHASTLQSGVPSRFSGSGSGTDFTLTISSLQPEDFATYYCQQHDNYPLTFGQGTKVEIK"
12,33.4%,"CFP0021 21L 50A (antibody, V domains shown) VH: QVQLVESGGGLVQPGGSLRLSCAASGFTFSDHYMDWVRQAPGKGLEWVGRTRNKANSYTTEYAASVKGRFTISRDDSKNSLYLQMNSLKTEDTAVYYCARTGMMYWGIFDVWGQGTLVTVSS VL: DIQMTQSPSSLSASVGDRVTITCRASQSIEDDLAWYQQKPGKAPKLLIYAASTLQSGVPSRFSGSGSGTDFTLTISSLQPEDFATYYCQQHDSYPLTFGQGTKVEIK"
13,97.6%,"CFP0021 21L 53N (antibody, V domains shown) VH: QVQLVESGGGLVQPGGSLRLSCAASGFTFSDHYMDWVRQAPGKGLEWVGRTRNKANSYTTEYAASVKGRFTISRDDSKNSLYLQMNSLKTEDTAVYYCARTGMMYWGIFDVWGQGTLVTVSS VL: DIQMTQSPSSLSASVGDRVTITCRASQSIEDDLAWYQQKPGKAPKLLIYHASNLQSGVPSRFSGSGSGTDFTLTISSLQPEDFATYYCQQHDSYPLTFGQGTKVEIK"
14,53%,"CFP0021 21L 50D (antibody, V domains shown) VH: QVQLVESGGGLVQPGGSLRLSCAASGFTFSDHYMDWVRQAPGKGLEWVGRTRNKANSYTTEYAASVKGRFTISRDDSKNSLYLQMNSLKTEDTAVYYCARTGMMYWGIFDVWGQGTLVTVSS VL: DIQMTQSPSSLSASVGDRVTITCRASQSIEDDLAWYQQKPGKAPKLLIYDASTLQSGVPSRFSGSGSGTDFTLTISSLQPEDFATYYCQQHDSYPLTFGQGTKVEIK"
15,80.4%,"CFP0021 21L 32Q (antibody, V domains shown) VH: QVQLVESGGGLVQPGGSLRLSCAASGFTFSDHYMDWVRQAPGKGLEWVGRTRNKANSYTTEYAASVKGRFTISRDDSKNSLYLQMNSLKTEDTAVYYCARTGMMYWGIFDVWGQGTLVTVSS VL: DIQMTQSPSSLSASVGDRVTITCRASQSIEDQLAWYQQKPGKAPKLLIYHASTLQSGVPSRFSGSGSGTDFTLTISSLQPEDFATYYCQQHDSYPLTFGQGTKVEIK"
16,79.5%,"CFP0021 21L 91Y (antibody, V domains shown) VH: QVQLVESGGGLVQPGGSLRLSCAASGFTFSDHYMDWVRQAPGKGLEWVGRTRNKANSYTTEYAASVKGRFTISRDDSKNSLYLQMNSLKTEDTAVYYCARTGMMYWGIFDVWGQGTLVTVSS VL: DIQMTQSPSSLSASVGDRVTITCRASQSIEDDLAWYQQKPGKAPKLLIYHASTLQSGVPSRFSGSGSGTDFTLTISSLQPEDFATYYCQQYDSYPLTFGQGTKVEIK"
17,22.2%,"CFP0021 21L 93D (antibody, V domains shown) VH: QVQLVESGGGLVQPGGSLRLSCAASGFTFSDHYMDWVRQAPGKGLEWVGRTRNKANSYTTEYAASVKGRFTISRDDSKNSLYLQMNSLKTEDTAVYYCARTGMMYWGIFDVWGQGTLVTVSS VL: DIQMTQSPSSLSASVGDRVTITCRASQSIEDDLAWYQQKPGKAPKLLIYHASTLQSGVPSRFSGSGSGTDFTLTISSLQPEDFATYYCQQHDDYPLTFGQGTKVEIK"
18,40.6%,"CFP0021 21L 50S (antibody, V domains shown) VH: QVQLVESGGGLVQPGGSLRLSCAASGFTFSDHYMDWVRQAPGKGLEWVGRTRNKANSYTTEYAASVKGRFTISRDDSKNSLYLQMNSLKTEDTAVYYCARTGMMYWGIFDVWGQGTLVTVSS VL: DIQMTQSPSSLSASVGDRVTITCRASQSIEDDLAWYQQKPGKAPKLLIYSASTLQSGVPSRFSGSGSGTDFTLTISSLQPEDFATYYCQQHDSYPLTFGQGTKVEIK"
19,4.8%,"CFP0021 21L 92S (antibody, V domains shown) VH: QVQLVESGGGLVQPGGSLRLSCAASGFTFSDHYMDWVRQAPGKGLEWVGRTRNKANSYTTEYAASVKGRFTISRDDSKNSLYLQMNSLKTEDTAVYYCARTGMMYWGIFDVWGQGTLVTVSS VL: DIQMTQSPSSLSASVGDRVTITCRASQSIEDDLAWYQQKPGKAPKLLIYHASTLQSGVPSRFSGSGSGTDFTLTISSLQPEDFATYYCQQHSSYPLTFGQGTKVEIK"
20,73.2%,"CFP0021 21L 53S (antibody, V domains shown) VH: QVQLVESGGGLVQPGGSLRLSCAASGFTFSDHYMDWVRQAPGKGLEWVGRTRNKANSYTTEYAASVKGRFTISRDDSKNSLYLQMNSLKTEDTAVYYCARTGMMYWGIFDVWGQGTLVTVSS VL: DIQMTQSPSSLSASVGDRVTITCRASQSIEDDLAWYQQKPGKAPKLLIYHASSLQSGVPSRFSGSGSGTDFTLTISSLQPEDFATYYCQQHDSYPLTFGQGTKVEIK"
21,4.7%,"CFP0021 21L 92N (antibody, V domains shown) VH: QVQLVESGGGLVQPGGSLRLSCAASGFTFSDHYMDWVRQAPGKGLEWVGRTRNKANSYTTEYAASVKGRFTISRDDSKNSLYLQMNSLKTEDTAVYYCARTGMMYWGIFDVWGQGTLVTVSS VL: DIQMTQSPSSLSASVGDRVTITCRASQSIEDDLAWYQQKPGKAPKLLIYHASTLQSGVPSRFSGSGSGTDFTLTISSLQPEDFATYYCQQHNSYPLTFGQGTKVEIK"
